Measured values: IntAct's records for PubMed 19430481

Molecular target: rpgr_mouse Rpgr (UniProt Q9R0X5)
Sequence (Q9R0X5 whole entry): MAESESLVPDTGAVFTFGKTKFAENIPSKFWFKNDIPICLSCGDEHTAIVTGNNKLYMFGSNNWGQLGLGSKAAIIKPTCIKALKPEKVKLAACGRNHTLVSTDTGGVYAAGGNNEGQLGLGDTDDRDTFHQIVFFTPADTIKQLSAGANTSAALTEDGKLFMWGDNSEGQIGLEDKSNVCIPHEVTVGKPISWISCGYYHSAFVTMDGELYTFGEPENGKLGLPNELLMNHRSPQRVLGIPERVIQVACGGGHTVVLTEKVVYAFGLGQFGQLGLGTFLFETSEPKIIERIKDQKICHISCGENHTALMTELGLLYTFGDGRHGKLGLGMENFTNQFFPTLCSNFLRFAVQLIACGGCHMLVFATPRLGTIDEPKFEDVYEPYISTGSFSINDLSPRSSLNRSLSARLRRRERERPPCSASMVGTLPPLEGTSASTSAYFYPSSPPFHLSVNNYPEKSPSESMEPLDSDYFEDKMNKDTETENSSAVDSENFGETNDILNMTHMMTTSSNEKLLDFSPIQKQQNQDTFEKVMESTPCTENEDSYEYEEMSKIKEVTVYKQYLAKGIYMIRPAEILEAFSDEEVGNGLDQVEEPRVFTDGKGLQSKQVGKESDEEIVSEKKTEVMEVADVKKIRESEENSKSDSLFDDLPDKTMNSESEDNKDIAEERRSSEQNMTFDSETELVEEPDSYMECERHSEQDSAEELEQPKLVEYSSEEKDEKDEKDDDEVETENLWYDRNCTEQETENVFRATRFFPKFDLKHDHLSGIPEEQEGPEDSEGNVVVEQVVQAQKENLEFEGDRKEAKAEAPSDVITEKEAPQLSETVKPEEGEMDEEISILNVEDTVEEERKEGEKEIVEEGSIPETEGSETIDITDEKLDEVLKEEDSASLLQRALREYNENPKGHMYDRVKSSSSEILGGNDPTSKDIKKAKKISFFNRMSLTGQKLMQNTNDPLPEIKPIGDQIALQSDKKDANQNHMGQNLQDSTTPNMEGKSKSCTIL

Protein fantom (Homo sapiens), Q68CZ1 A229T, sequence (Q68CZ1 whole entry A229T): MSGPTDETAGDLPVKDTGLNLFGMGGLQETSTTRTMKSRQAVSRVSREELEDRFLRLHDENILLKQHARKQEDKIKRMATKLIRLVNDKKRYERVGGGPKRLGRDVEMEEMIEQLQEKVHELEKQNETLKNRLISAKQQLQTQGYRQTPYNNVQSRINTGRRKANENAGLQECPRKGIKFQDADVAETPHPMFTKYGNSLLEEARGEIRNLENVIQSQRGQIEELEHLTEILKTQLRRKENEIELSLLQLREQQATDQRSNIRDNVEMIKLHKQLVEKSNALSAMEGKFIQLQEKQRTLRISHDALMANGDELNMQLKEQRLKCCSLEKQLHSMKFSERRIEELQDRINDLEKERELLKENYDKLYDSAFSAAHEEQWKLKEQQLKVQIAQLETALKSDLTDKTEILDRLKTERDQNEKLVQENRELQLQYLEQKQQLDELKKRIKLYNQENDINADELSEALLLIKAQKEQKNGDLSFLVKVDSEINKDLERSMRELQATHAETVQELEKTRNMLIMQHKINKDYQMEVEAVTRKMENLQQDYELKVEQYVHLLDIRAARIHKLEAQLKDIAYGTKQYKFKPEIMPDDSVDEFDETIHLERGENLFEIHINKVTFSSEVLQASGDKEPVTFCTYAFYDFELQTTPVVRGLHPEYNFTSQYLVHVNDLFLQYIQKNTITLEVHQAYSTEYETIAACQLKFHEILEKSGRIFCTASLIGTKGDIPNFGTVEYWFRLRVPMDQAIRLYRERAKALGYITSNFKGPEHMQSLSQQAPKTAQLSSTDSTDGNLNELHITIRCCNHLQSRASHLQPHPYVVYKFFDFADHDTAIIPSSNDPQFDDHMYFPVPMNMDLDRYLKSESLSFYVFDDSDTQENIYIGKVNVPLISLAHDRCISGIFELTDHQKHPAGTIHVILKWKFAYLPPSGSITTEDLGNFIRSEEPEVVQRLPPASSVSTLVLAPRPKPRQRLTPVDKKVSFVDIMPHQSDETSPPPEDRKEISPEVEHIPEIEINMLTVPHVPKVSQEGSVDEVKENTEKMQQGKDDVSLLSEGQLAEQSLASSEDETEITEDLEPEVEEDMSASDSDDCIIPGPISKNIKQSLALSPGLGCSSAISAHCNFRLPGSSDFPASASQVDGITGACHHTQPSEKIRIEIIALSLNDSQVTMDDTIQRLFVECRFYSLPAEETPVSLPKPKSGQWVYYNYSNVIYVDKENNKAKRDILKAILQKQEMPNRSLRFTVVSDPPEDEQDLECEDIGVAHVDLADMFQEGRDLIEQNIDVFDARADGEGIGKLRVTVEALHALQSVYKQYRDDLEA

Protein fantom (Homo sapiens), Q68CZ1 A229T
effect of a mutation on the interaction: decreasing interaction strength

Protein fantom (Homo sapiens), Q68CZ1 A695P
effect of a mutation on the interaction: decreasing interaction strength

Protein fantom (Homo sapiens), Q68CZ1 T615P
effect of a mutation on the interaction: decreasing interaction strength

Protein fantom (Homo sapiens), Q68CZ1 T677I
effect of a mutation on the interaction: with no effect
